The series can be described thus: protein stability index of a GFP-peptide fusion (GPS, HEK-293T) (PSI 1-6); higher = more stable.
Where [1] appears, read: treatment: DMSO, c terminus: a fixed tail appended.
Setting [2] is: treatment: MLN4924 1 uM, 8 h, c terminus: a fixed tail appended.
Where [3] appears, read: treatment: DMSO, c terminus: native.
Where [4] appears, read: treatment: MLN4924 1 uM, 8 h, c terminus: native.

± gives the standard deviation.
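Further: 24-mer peptide tiles fused after GFP, lentivirally expressed, FACS-sorted into six equal bins by GFP/DsRed ratio, decoded by Illumina sequencing, PSI is the read-weighted mean bin number.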

Consider NFDSIYICPSTFACAQLATGAACR [HDAC6], for which the protein stability index is, setting by setting: under setting [1], 2.24 ± 0.21; under setting [2], 2.16 ± 0.26.

Regarding NGATDDSKTNLIVNYLPQNMTQDE [ELAVL3], the protein stability index is 5.08 ± 0.29 under setting [1] and 5.21 ± 0.041 under setting [2].

Sequence NGNEEDNHLPPQTKRSSRNPVFQD [FAM104A] had a protein stability index under setting [1] of 5.16 ± 0.29 and a protein stability index under setting [2] of 5.26 ± 0.2.

Regarding NGNSYICKCSEGFVLAEDGRRCKK [MATN2], the protein stability index by setting is: under setting [1], 3.75 ± 0.28; under setting [2], 4.1 ± 0.19.

NICELAARMLFSAVEWARNIPFFP [NR2F2]: the protein stability index is, setting by setting: under setting [1], 3.61 ± 0.17; under setting [2], 3.23 ± 0.06.

Regarding NKIKVMHKQLLLFHNAVSAYFAGN [ARFIP2], the protein stability index is 2.55 ± 0.64 under setting [1] and 2.34 ± 0.24 under setting [2].

Turning to NLARQWNNCAFLESSAKSKINVNE [RAP1B], the protein stability index is, setting by setting: under setting [1], 2.93 ± 0.33; under setting [2], 2.75 ± 0.19.

As for NLGPKSKVLILRNHGLVSVGESVE [ADD1], the protein stability index under setting [1] amounted to 2.69 ± 0.23 and the protein stability index under setting [2] was determined as 3.05 ± 0.38.

Consider NLGVENMNHYKKTTLEIHNTEERQ [PTPN9], for which the protein stability index turned out to be 4.4 ± 0.2 under setting [1] and 4.8 ± 0.28 under setting [2].

With NLHSLALDFCDFTAEMARVLTDSN [FBXO33], the protein stability index was 1.84 ± 0.25 under setting [1] and 2.49 ± 0.61 under setting [2].

On to NLNEDDTFLVFSKAELGALPHDFI, for which the protein stability index reads like this: under setting [1], 2.82 ± 0.2; under setting [2], 2.87 ± 0.16.

Consider NLYSWDDFMELGRSIPDTQLEQVI [ACSBG2], for which the protein stability index by setting is: under setting [1], 3.25 ± 0.25; under setting [2], 3.38 ± 0.31.

On to NNVVDISVPPTTDGQKPNKLQCCQ [RAB11B], for which the protein stability index runs as follows: under setting [1], 4.72 ± 0.26; under setting [2], 4.58 ± 0.12.

For NRKVSQRRVDFCKDPSAIGKKQVP [CASP6], the protein stability index runs as follows: under setting [1], 4.04 ± 0.16; under setting [2], 4.26 ± 0.22.

For the sequence NRLLQEENRTLQVLRAEHRGFQEE [CBY2], the protein stability index came out at 4.43 ± 0.21 under setting [1] and 4.46 ± 0.12 under setting [2].

Regarding NRVFSLQDLCCRAIVSCTPVHLID [RAB40C], the protein stability index runs as follows: under setting [1], 2.53 ± 0.26; under setting [2], 2.35 ± 0.27.

NTLAPTCFKAKLHRKRGSQPPDMA [RSPH3]: the protein stability index was 3.83 ± 0.12 under setting [1] and 3.87 ± 0.25 under setting [2].

Consider NVGEISVSTRLTVLREDQIPRGFP [PTPRD], for which the protein stability index by setting is: under setting [1], 3.31 ± 0.54; under setting [2], 3.44 ± 0.44.

As for NWFMSFGPEIKLNTSQQGRNQAV [FAM104B], the protein stability index is, setting by setting: under setting [3], 2.12 ± 0.49; under setting [4], 2.73 ± 1.

For NWLQVSFTAKHANKVKVLDAPVPD [FSD1], the protein stability index came to 3.02 ± 0.15 under setting [1] and 2.91 ± 0.19 under setting [2].

Consider NWPARQRGTHAVVGVATARAPLHS [SPSB4], for which the protein stability index reads like this: under setting [1], 3.52 ± 0.19; under setting [2], 3.57 ± 0.27.

Take PAAKPDPDGGRADEWACELRLFGR [P3H4]: the protein stability index under setting [1] amounted to 3.47 ± 0.23 and the protein stability index under setting [2] worked out at 3.36 ± 0.33.

PAPEAAHTTGPTGSAPNSPMALLT [TFE3] displayed a protein stability index under setting [1] of 4.67 ± 0.12 and a protein stability index under setting [2] of 4.67 ± 0.16.

PAPTPTPPGRLGAPYSEAWGYFHL [ZBED3] had a protein stability index under setting [1] of 2.37 ± 0.27 and a protein stability index under setting [2] of 2.23 ± 0.6.

As to PASQHSTPAGLPPSRAKPPTEGAG [FBF1], the protein stability index worked out at 5.39 ± 0.3 under setting [1] and 5.293 ± 0.028 under setting [2].

PCGKYNAMVLELLGPSLEDLFDLC [CSNK1G1]: the protein stability index under setting [1] was 2.69 ± 1.2 and the protein stability index under setting [2] amounted to 2.21 ± 0.5.

With PDLTQAPSSLMETLEQHLNTLEGK [SNAP91], the protein stability index amounted to 4.77 ± 0.35 under setting [1] and 5.08 ± 0.21 under setting [2].

Turning to PDVIPLPHIYGARIKGVEVFCPLD [FAM189A2], the protein stability index by setting is: under setting [1], 2.55 ± 0.25; under setting [2], 2.64 ± 0.14.

As for PEGHVLRSDGKTCAKLDSCALGDH [MATN2], the protein stability index is, setting by setting: under setting [1], 4.79 ± 0.13; under setting [2], 4.72 ± 0.21.

For PELKSLAKTFHLVNPNGQKQQLVD [FAN1], the protein stability index is, setting by setting: under setting [1], 4.05 ± 0.07; under setting [2], 4.2 ± 0.22.

Regarding PGGGAGMAAGFPYALRAYLGYQAV [CEBPB], the protein stability index under setting [1] amounted to 2.71 ± 0.77 and the protein stability index under setting [2] was found to be 2.72 ± 0.41.

The sequence PGGNLIVELARYLVDVRQEQLQGF [DNAAF3] yielded a protein stability index under setting [1] of 2.9 ± 0.56 and a protein stability index under setting [2] of 2.39 ± 0.14.

In turn, PGGRPEVIYNYVQRPFIRMSWEKE [BTBD10] returned a protein stability index under setting [1] of 3.06 ± 0.41 and a protein stability index under setting [2] of 3.21 ± 0.43.

For PGLLGSMALSNHYRSEDLLDVDTA [FBXO3], the protein stability index runs as follows: under setting [1], 4.24 ± 0.097; under setting [2], 4.32 ± 0.24.

For PHQTSKMENLPGLASGPGKYMPHL, the protein stability index came to 3.44 ± 0.23 under setting [1] and 3.65 ± 0.076 under setting [2].

With PIDFEESRFYEIHARARDQGQPAM [PCDHGC5], the protein stability index is, setting by setting: under setting [1], 4.3 ± 0.2; under setting [2], 4.38 ± 0.21.

As for PILAPRIFGSNKWTTEQQQRFHEI [ARL6IP1], the protein stability index is 3.07 ± 0.25 under setting [1] and 3 ± 0.22 under setting [2].

Consider PKETQPFPKSEQVYLHFLSVVTED [ZNF232], for which the protein stability index by setting is: under setting [1], 2.69 ± 0.24; under setting [2], 2.99 ± 0.28.

Turning to PKTQACSGSESPSDSGKDLPEPSK [MYCL], the protein stability index runs as follows: under setting [1], 5.36 ± 0.23; under setting [2], 5.63 ± 0.25.

PLDFEAYSAAALQEAMKRLRGAKA [FCHO1]: the protein stability index runs as follows: under setting [1], 3.46 ± 0.25; under setting [2], 3.62 ± 0.29.

Consider PLLPAPPKTPMDGADCGIQWWNAV [LYSMD4], for which the protein stability index reads like this: under setting [1], 3.48 ± 0.42; under setting [2], 3.62 ± 0.21.

Take PLLRWVLTLSFLVATVAVGLYAM [HMOX1]: the protein stability index turned out to be 2.86 ± 0.15 under setting [3] and 2.57 ± 0.31 under setting [4].

Take PLLSASVTGHTNIVDFLTHHAQTS [FEM1C]: the protein stability index by setting is: under setting [1], 3.11 ± 0.27; under setting [2], 3.11 ± 0.23.

In the case of PMKSAPVMLTLSDSKHVVLPVDDD [RBBP5], the protein stability index is, setting by setting: under setting [1], 5.08 ± 0.12; under setting [2], 5.07 ± 0.08.

On to PMQERRASFYACRLDKHLYVIGGR [KLHL14], for which the protein stability index is 2.15 ± 0.49 under setting [1] and 2.23 ± 0.28 under setting [2].

Sequence PPCAWACPVPAHRRGSWRLPYTDG [CTBP1-DT] yielded a protein stability index under setting [1] of 2.92 ± 0.23 and a protein stability index under setting [2] of 2.93 ± 0.17.

With PPDLGAQRRHGWNPKDCSENIEVK [SPSB2], the protein stability index is, setting by setting: under setting [1], 4.84 ± 0.29; under setting [2], 5.03 ± 0.14.

With PPPPPPSRGGPPPPPPPPHNSGPP [WASL], the protein stability index stood at 5.28 ± 0.17 under setting [1] and 5.3 ± 0.2 under setting [2].

For the sequence PQKASPNGSISSAGNSSRNSSQSS [BTBD10], the protein stability index by setting is: under setting [1], 5.04 ± 0.24; under setting [2], 4.96 ± 0.13.

On to PQTHSNRIYRMIKLGLGIDEDEVA [HSP90AB1], for which the protein stability index reads like this: under setting [1], 3.25 ± 0.4; under setting [2], 3.49 ± 0.31.

As to PRAAHACATVGNRGFVFGGRYRDA [KLHDC2], the protein stability index is, setting by setting: under setting [1], 2.19 ± 0.19; under setting [2], 2.12 ± 0.14.

With PRAERKCPRIAPADSGRYRASPTR [ELOA2], the protein stability index runs as follows: under setting [1], 4.47 ± 0.14; under setting [2], 4.47 ± 0.26.

Regarding PRCDLVDLGEGKICFCCEEFQPAK [FAM189A2], the protein stability index was determined as 3.3 ± 0.44 under setting [1] and 3.67 ± 0.49 under setting [2].

As to PRLKEDQPWMVIEGIRQTEYTLTG [FSD1], the protein stability index reads like this: under setting [1], 3.18 ± 0.34; under setting [2], 3.12 ± 0.19.

Take PRLTMHYPCLEKPRIWSLAHTATA [IRX6]: the protein stability index runs as follows: under setting [1], 2.31 ± 0.18; under setting [2], 2.5 ± 0.11.

As to PRSSLAESFFVDYEENEGAGPYLL [ADAMTSL2], the protein stability index was determined as 3.91 ± 0.17 under setting [1] and 3.82 ± 0.17 under setting [2].

PRTRARLGANEVLLVVGGFGSQQS [KLHL12]: the protein stability index runs as follows: under setting [1], 2.17 ± 0.12; under setting [2], 1.97 ± 0.58.

As for PSAGFRCCAAPGPHVALAVRYNRV [ANKRD9], the protein stability index is, setting by setting: under setting [1], 2.37 ± 0.28; under setting [2], 2.21 ± 0.34.

Consider PSDKVGRADAHLGSSSVALPKEAS [TOR1AIP2], for which the protein stability index is 5.23 ± 0.14 under setting [1] and 5.04 ± 0.091 under setting [2].

Take PSGCAIACGGLDNKCSVYPLTFDK [GNB5]: the protein stability index runs as follows: under setting [1], 2.72 ± 0.17; under setting [2], 2.94 ± 0.36.

As for PSGPPPPPPSVLGVGPVAPPPPPP [WASL], the protein stability index amounted to 4.86 ± 0.21 under setting [1] and 4.89 ± 0.18 under setting [2].

Take PSLYSSYHQGCLVNPTGNLPMWSN [NANOGP8]: the protein stability index under setting [1] is 2.39 ± 0.073 and the protein stability index under setting [2] was 2.37 ± 0.096.

Consider PSRRSENRVVVSGLPPSGSWQDLK [SRSF1], for which the protein stability index is, setting by setting: under setting [1], 3.89 ± 0.33; under setting [2], 4.21 ± 0.22.

On to PSRVHGSLEPFRPQQAPQDDGSQD [PWWP2B], for which the protein stability index runs as follows: under setting [1], 5.52 ± 0.21; under setting [2], 5.52 ± 0.22.

PTVGIGGDRLQFNQLSQAELDELA [EFHC1] came in with a protein stability index under setting [1] of 5.13 ± 0.23 and a protein stability index under setting [2] of 5.27 ± 0.15.

With PVCYQCLEEGKHSSHEVKALGAMW [TRIM9], the protein stability index worked out at 2.64 ± 0.35 under setting [1] and 2.76 ± 0.32 under setting [2].

Take PVLLLQITVGLVFLCLQYRLRGKL [MOG]: the protein stability index reads like this: under setting [1], 3.23 ± 0.36; under setting [2], 3.17 ± 0.25.

As for PVTICCGHSFCRPCLCLSWEEAQS [TRIM43], the protein stability index is, setting by setting: under setting [1], 2.61 ± 0.35; under setting [2], 2.95 ± 0.36.

Regarding QAEIENKRRQLEDERRQLQHLKSK [PALM], the protein stability index by setting is: under setting [1], 5.02 ± 0.17; under setting [2], 4.97 ± 0.36.

Turning to QAFRAIDRADYYLEEFKENAYKDL [PCMTD2], the protein stability index reads like this: under setting [1], 3.34 ± 0.15; under setting [2], 3.17 ± 0.23.

As to QAFRAIDRGDYYLEGYRDNAYKDL [PCMTD1], the protein stability index was found to be 2.85 ± 0.19 under setting [1] and 2.98 ± 0.53 under setting [2].

On to QARYHDTPYKPPAGRAAAPELSYR [MYORG], for which the protein stability index under setting [1] stood at 3.69 ± 0.15 and the protein stability index under setting [2] came to 3.85 ± 0.13.

(Values after the supplement of paper PMC10567573.)
